Results: article PMC4491846

Target: Tulane virus (TV) virions, CsCl gradient-purified (Tulane virus)

With “Maackia amurensis leukoagglutinin (MAL), biotinylated (from UniProt P0DKL3 30-278) (natural protein)” the TV infectivity in LLC-MK2 cells by plaque assay after treatment with MAL (dose series up to 100 μg/mL; maximum enhancement at 50 μg/mL), percent of the untreated control was 262%.
